This passage reports Kd results from paper PMC10192418, “High-affinity peptides developed against calprotectin and their application as synthetic ligands in diagnostic assays” (Nature Communications, 2023).

Assay [1] deals with T1, B-RCAL (BÜHLMANN recombinant calprotectin; His6-linker-S100A9-linker-S100A8).
T1 chain: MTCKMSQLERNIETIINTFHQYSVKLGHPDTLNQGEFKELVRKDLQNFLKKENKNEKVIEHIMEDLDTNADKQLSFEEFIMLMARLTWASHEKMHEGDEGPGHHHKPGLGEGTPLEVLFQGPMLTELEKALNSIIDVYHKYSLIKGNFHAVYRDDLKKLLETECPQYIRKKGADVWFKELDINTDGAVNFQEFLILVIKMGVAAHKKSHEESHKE
Nature of the assay: fluorescence polarisation. Particulars: chain shown with the change, in the presence of calcium ions, three independent measurements.

Assay [2] deals with T2, B-RCAL (BÜHLMANN recombinant calprotectin; His6-linker-S100A9-linker-S100A8) (human).
T2 chain: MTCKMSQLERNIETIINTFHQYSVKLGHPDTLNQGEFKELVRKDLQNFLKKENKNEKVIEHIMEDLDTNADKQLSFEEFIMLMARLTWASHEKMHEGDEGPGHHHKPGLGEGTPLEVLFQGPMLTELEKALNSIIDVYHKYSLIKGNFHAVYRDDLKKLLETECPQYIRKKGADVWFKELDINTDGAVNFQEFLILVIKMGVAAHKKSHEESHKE
Nature of the assay: FP. Particulars: modification not given.

Consider RSPESVAFPMFQCHWYCG [peptide 3 isomer 1 (dumbbell shaped, double-bridged) C2S; C5S], for which, in assay [1] (Cys3-Cys4 chemically bridged), the Kd came out at 17.9 nM.
For the molecule RSPESVAFPMFQSHWYSA [G18A], in assay [2], the Kd turned out to be 31 nM.
For RSPESVAFPMFQSHAYSG [W15A], the equilibrium dissociation constant (Kd) in assay [2] worked out at 24 nM.
With RSPASVAFPMFQSHWYSG [E4A], in assay [2], the Kd came out at 26 nM.
With RCPECVAFPMFQSHWYSG [peptide 3 isomer 1 (dumbbell shaped, double-bridged) C13S; C17S], the dissociation constant Kd in assay [1] (Cys1-Cys2 chemically bridged) is 16.9 nM.
For the molecule RSPESVAFAMFQSHWYSG [P9A], in assay [2], the Kd came to 30 nM.
